Data published in patent US20180334496A1 (KODIAK SCIENCES, published 2018).
Numbering of substitutions follows the chain as printed. Where “and” joins values, the source holds several entries; their conditions need not be identical. Equal entries are not always repeated. Where two headings read alike, the source gives them in different places. Values belong to the binder of their own block, whether it stands above or below them.

Columns and labels:
[1] = biological target: T1, human complement factor D purified from serum (human, UniProt P00746 26-253); test: cell-based or functional assay
[2] = biological target: T1, human complement factor D purified from …; test: SPR MX96
[3] = biological target: T2, recombinant human CFD, His-tagged (human, UniProt P00746 26-253); test: SPR MX96
T2 construct: also called rhCFD-His

[4] = biological target: T3, recombinant cynomolgus CFD, His-tagged (cynomolgus); test: SPR MX96
T3 construct: also called rcyCFD-His; recombinant Cyno-CFD

[5] = biological target: T4, recombinant human CFD mutant 1 (R157A, R207A), His-tagged (human, UniProt P00746 26-253); test: ELISA
T4 construct: positions are linear positions in the mature protein; also called rhCFD-mut1-His; Mut1

[6] = biological target: T1, human complement factor D purified from …
[7] = biological target: T4, recombinant human CFD mutant 1 (R157A, …); test: ELISA, Mut1 Binding, Bin 2
[8] = biological target: T5, human Complement Factor D (CFD), purified from human serum (human, UniProt P00746 26-253); test: SPR Biacore, full-length IgG captured on protein A chip, serum purified CFD
T5 construct: serum purified (CompTech A136); also called serum purified CFD; hCFD-Comptech

[9] = biological target: T5, human Complement Factor D (CFD), …; test: SPR MX96, mAbs amine-coupled, CFD injected
[10] = biological target: T1, human complement factor D purified from …; remark: listed apart in the source
[11] = biological target: T4, recombinant human CFD mutant 1 (R157A, …); test: SPR MX96
[12] = biological target: T4, recombinant human CFD mutant 1 (R157A, …); test: ELISA; remark: listed apart in the source
[13] = biological target: T6, human Complement Factor D (serum purified) (human, UniProt P00746 26-253); test: KinExA in solution, 37 degrees; free CFD captured on OG1931 beads and detected with KCD004-A647
T6 construct: also called CFD; FD

[14] = biological target: T6, human Complement Factor D (serum …); test: SPR (Biacore), conjugate captured on Protein A chip, serum purified human CFD as analyte, 25 degrees
[15] = biological target: T6, human Complement Factor D (serum …); test: cell-based or functional assay
[16] = biological target: T6, human Complement Factor D (serum …); test: SPR (Biacore), antibody captured on Protein A chip, serum purified human CFD as analyte, 25 degrees
[17] = biological target: T7, serum purified human Complement Factor D (human, UniProt P00746 26-253); test: SPR Biacore T200, biotinylated OG1965 captured on neutravidin CM5 chip, single cycle kinetics, 25 C
T7 construct: Serum purified protein flowed over the captured antibodies; also called CFD; human CFD

[18] = biological target: T7, serum purified human Complement Factor D; test: SPR Biacore, antibody on protein A chip, single cycle kinetics, 25 C
[19] = biological target: T7, serum purified human Complement Factor D; test: as above; remark: listed apart in the source
[20] = biological target: T7, serum purified human Complement Factor D; test: SPR Biacore, antibody on protein A chip, single cycle kinetics, 37 C
[21] = biological target: T8, recombinant cynomologus Complement Factor D (cynomolgus); test: SPR Biacore, antibody on protein A chip, cyCFD in flow, single cycle kinetics, 37 C
T8 construct: also called cyCFD; cyno CFD

[22] = biological target: T7, serum purified human Complement Factor D; test: SPR Biacore T200, biotinylated OG1965 captured on neutravidin CM5 chip, single cycle kinetics, 37 C
[23] = biological target: T7, serum purified human Complement Factor D; test: SPR Biacore, antibody on protein A chip, single cycle kinetics, 37 C; remark: listed apart in the source
[24] = biological target: T7, serum purified human Complement Factor D; test: SPR Biacore, 37 C
[25] = biological target: T7, serum purified human Complement Factor D; test: SPR Biacore, 25 C
[26] = biological target: T7, serum purified human Complement Factor D; test: SPR Biacore, 25 C; remark: listed apart in the source
[27] = biological target: T7, serum purified human Complement Factor D; test: SPR Biacore, 37 C; remark: listed apart in the source
Throughout, for CFD Enzymatic activity (% of Neg Ctrl): test concentration or dose not given here.

T1 sequence (P00746 26-253): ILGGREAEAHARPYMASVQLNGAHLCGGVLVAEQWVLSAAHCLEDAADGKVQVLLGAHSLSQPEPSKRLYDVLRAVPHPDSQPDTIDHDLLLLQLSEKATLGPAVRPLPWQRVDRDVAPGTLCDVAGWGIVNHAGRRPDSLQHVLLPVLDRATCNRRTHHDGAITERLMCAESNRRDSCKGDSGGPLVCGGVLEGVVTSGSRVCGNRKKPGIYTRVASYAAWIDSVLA
T5 sequence (P00746 26-253): as above
T6 sequence (P00746 26-253): as above
T7 sequence (P00746 26-253): as above
T4 sequence (P00746 26-253 R182A/R232A limits assumed): as the sequence (P00746 26-253) above, with R157A, R207A counted along it
T2 sequence (P00746 26-253 limits assumed): as the sequence (P00746 26-253) above

B4: KCD048 (antibody, V domains shown)
VH: EVQLQQSGADLVKPGASVKLSCTASGFNIKATYMHWVRQRPEKGLEWIGRIDPANGHTIYDPQFQGKATITSDTSSNTAYLQLNSLTSEDTAVYYCAEAMDYWGQGTSVTVSS
VL: QIVLTQSPAIMSASPGEKVTLTCSATSSVSYMYWYQQKPGSSPRLLIYDTSNLASGVPVRFSGSGSGTSYSLTISRMEAEDDATYYCQQWSNYPFTFGGGTKLEIK
notes: chimeric
Kd [10]: 997 pM
Kd [2]: 1900 pM
Kd [11]: 830 pM
Kd [4]: 21000 pM
Mut1 Binding (% wt) [12]: 62.3 % wt

B5: OG1970 (other)
heavy: EVQLVESGGGLVQPGGSLRLSCAASGYTFTDYYINWVRQAPGKGLEWIGDINPITGDTDYNADFKRRFTFSLDTSKSTAYLQMSSLRAEDTAVYYCTREGPSFAYWGQGTLVTVSSASTKGPSVFPLAPSSKSTSGGTAALGCLVKDYFPEPVTVSWNSGALTSGVHTFPAVLQSSGLYSLSSVVTVPSSSLGTQTYICNVNHKPSNTKVDKKVEPKSCDKTHTCPPCPAPEAAGAPSVFLFPPKPKDTLMISRTPEVTCVVVDVSHEDPEVKFNWYVDGVEVHNAKTKPREEQYNSTYRVVSVLTVLHQDWLNGKEYKCKVSNKALPAPIEKTISKAKGQPREPQVYTLPPSREEMTKNQVSLTCLVKGFYPSDIAVEWESNGQPENNYKTTPPVLDSDGSFFLYSKLTVDKSRWQQGNVFSCSVMHEALHNHYTQKSLSCSPGK
light: DIQLTQSPSSLSASVGDRVTITCRSSQTIVHSNGDTYLEWYQQKPGKAPNLLIRKVSNRFSGVPSRFSGSGSGTDFTLTISSLQPEDFATYYCFQGSHVPVTFGQGTKVEIKRTVAAPSVFIFPPSDEQLKSGTASVVCLLNNFYPREAKVQWKVDNALQSGNSQESVTEQDSKDSTYSLSSTLTLSKADYEKHKVYACEVTHQGLSSPVTKSFNRGEC
modifications: polymer OG1802 (9-arm HEMA-PC polymer, about 750-800 kDa, maleimide) bonded through the sulfhydryl of C443 (EU numbering; 442C in SEQ ID NO: 183), on one of the heavy chains
notes: Antibody-polymer conjugate: decapped OG1965 conjugated to polymer OG1802; The stoichiometry of antibody to polymer is described as 1:1; also called OG1965 bioconjugate; OG1965 conjugated to polymer OG1802
Kd [13]: 8.07 pM
kon [13]: 3.67e+07 M⁻¹ s⁻¹
Kd [14]: 6.14 pM
kon [14]: 2.16e+07 M⁻¹ s⁻¹
EC50 (nM) in hemolysis assay (rabbit RBC, normal human serum) [15]: 1.65 nM

B6: OG1965 (antibody, IgG1, V domains shown)
VH: EVQLVESGGGLVQPGGSLRLSCAASGYTFTDYYINWVRQAPGKGLEWIGDINPITGDTDYNADFKRRFTFSLDTSKSTAYLQMSSLRAEDTAVYYCTREGPSFAYWGQGTLVTVSS
VL: DIQLTQSPSSLSASVGDRVTITCRSSQTIVHSNGDTYLEWYQQKPGKAPNLLIRKVSNRFSGVPSRFSGSGSGTDFTLTISSLQPEDFATYYCFQGSHVPVTFGQGTKVEIKR
notes: also called 34I54I59D84S/54R101V; 34I54I59D84S (heavy) / 54R101V (light)
Kd [13]: 5.86 pM
kon [13]: 3.06e+07 M⁻¹ s⁻¹
Kd [16]: 2.5 pM
kon [16]: 2.52e+07 M⁻¹ s⁻¹
EC50 (nM) in hemolysis assay (rabbit RBC, normal human serum) [15]: 1.74 nM

B8: 31S54I59D / 54R101V (antibody, V domains shown)
VH: B6 VH with D31S, I34M, S84N
VL: B6 VL
notes: KCD119 TAF variant
Kd [24]: 6.91 pM
koff [24]: 0.000214 s⁻¹
kon [24]: 3.09e+07 M⁻¹ s⁻¹
Kd [19]: 7.79 pM and 3.66 pM and 8.36 pM
koff [19]: 7.94e-05 s⁻¹ and 5.12e-05 s⁻¹ and 0.00012 s⁻¹
kon [19]: 1e+07 M⁻¹ s⁻¹ and 1.4e+07 M⁻¹ s⁻¹ (2×)
Kd [23]: 6.05 pM and 6.91 pM and 8.17 pM
koff [23]: 0.00021 s⁻¹ and 0.000214 s⁻¹ and 0.000227 s⁻¹
kon [23]: 3.48e+07 M⁻¹ s⁻¹ and 3.09e+07 M⁻¹ s⁻¹ and 2.78e+07 M⁻¹ s⁻¹
Kd [25]: 3.66 pM
koff [25]: 5.12e-05 s⁻¹
kon [25]: 1.4e+07 M⁻¹ s⁻¹
Kd [26]: 8.36 pM
koff [26]: 0.00012 s⁻¹
kon [26]: 1.44e+07 M⁻¹ s⁻¹
Kd [27]: 8.17 pM
koff [27]: 0.000227 s⁻¹
kon [27]: 2.78e+07 M⁻¹ s⁻¹

B9: KCD119 TAF (antibody, V domains shown)
VH: B6 VH with I34M, I54N, D59S, S84N
VL: DIQLTQSPSSLSASVGDRVTITCRSSQTIVHSNGDTYLEWYQQKPGKAPNLLIYKVSNRFSGVPSRFSGSGSGTDFTLTISSLQPEDFATYYCFQGSHVPPTFGQGTKVEIK
notes: full IgG captured on protein A; also called TAF KCD119; KCD119 CDRs grafted into the TAF framework
Kd [8]: 230 pM

Other lines, results leading:

CFD Enzymatic activity (% of Neg Ctrl) [1]: 18.7 % of Neg Ctrl
Kd [2]: 2800 pM
Kd [3]: 1300 pM
Kd [4]: 2900 pM
Mut1 Binding (% wt) [5]: 2.91 % wt
Kd [6]: 277 pM
binding result [7]: no binding
B1: KCD123 (antibody, V domains shown)
VH: EVHLQQSGPELVKPGASVKISCKASGYTFTDFYKNWMRQRHGESLEWIGDINPNNGGTNYNQKFKGKATLTVDKSSSTAYMELRSLTSEDSAVYYCAREGPSFAYWGQGTLVTVSA
VL: DVLMTQTPLSLPVSLGDQASISCRSSQTIVHSNGDTYLEWYLQKPGQSPNLLIYKVSNRFSGVPDRFSGSGSGTDFTLKISRVEAEDLGVYYCFQGSHVPPTFGGGTKLEIK
notes: chimeric

CFD Enzymatic activity (% of Neg Ctrl) [1]: 49.2 % of Neg Ctrl
Kd [2]: 1400 pM
Kd [3]: 1200 pM
Kd [4]: 2300 pM
Mut1 Binding (% wt) [5]: 1.79 % wt
Kd [6]: 726 pM
binding result [7]: no binding
B2: KCD005 (antibody, V domains shown)
VH: EVQLQQSGPELVKPGASVKISCKASGYTFTDHYMNWVKQSHGKSLEWIGDINPNNGGTSCNQKFKGKATLTVDKSSSTAYMELRSLTSGDSAVYYCTREGASFAFWGQGTLVTVSA
VL: B1 VL with T28S, N50K, P101V, G105A, I111L
notes: chimeric

Kd [8]: 40 pM
Kd [9]: 375 pM and 857 pM
B3: KCD119 (antibody, V domains shown)
VH: EVQLQQSGPELVKPGASVKISCKASGYTFTDYYTNWMRQRHGESLEWIGDINPNTGDTSYNQKFRVKATLTVDKSSGTAYMGLRSLTSEDSAVYYCTREGPSFAYWGQGTLVTVSA
VL: B1 VL with K108T
notes: mouse variable domains; full IgG, captured on protein A; also called KCD119-mouse monoclonal antibody; Mouse KCD119

Kd [17]: 3.64 pM
koff [17]: 5.08e-05 s⁻¹
kon [17]: 1.4e+07 M⁻¹ s⁻¹
Kd [18]: 4.37 pM
koff [18]: 9.02e-05 s⁻¹
kon [18]: 2.06e+07 M⁻¹ s⁻¹
Kd [19]: 4.37 pM
koff [19]: 9.02e-05 s⁻¹
kon [19]: 2.06e+07 M⁻¹ s⁻¹
Kd [20]: 5.04 pM
koff [20]: 0.000202 s⁻¹
kon [20]: 4e+07 M⁻¹ s⁻¹
Kd [21]: 28 pM
koff [21]: 0.000978 s⁻¹
kon [21]: 3.49e+07 M⁻¹ s⁻¹
Kd [22]: 9.56 pM
koff [22]: 0.000241 s⁻¹
kon [22]: 2.55e+07 M⁻¹ s⁻¹
Kd [23]: 5.04 pM
koff [23]: 0.000202 s⁻¹
kon [23]: 4e+07 M⁻¹ s⁻¹
B7: 34I54I59D84S / 54R101V (antibody, human IgG1, V domains shown)
VH: B6 VH
VL: B6 VL
notes: Human IgG1 kappa; also called OG1965

Kd [24]: 6.13 pM
koff [24]: 0.000174 s⁻¹
kon [24]: 2.84e+07 M⁻¹ s⁻¹
Kd [19]: 6.13 pM
koff [19]: 9.14e-05 s⁻¹
kon [19]: 1.49e+07 M⁻¹ s⁻¹
Kd [23]: 6.13 pM
koff [23]: 0.000174 s⁻¹
kon [23]: 2.84e+07 M⁻¹ s⁻¹
Kd [25]: 6.13 pM
koff [25]: 9.14e-05 s⁻¹
kon [25]: 1.49e+07 M⁻¹ s⁻¹
B10: 31S54I59D84S / 54R101V (antibody, V domains shown)
VH: B6 VH with D31S, I34M
VL: B6 VL
notes: also called 31554159D845 / 54R101V
